These results are taken from PMC10786891, “Massively parallel profiling of RNA-targeting CRISPR-Cas13d”.

First the molecules themselves.
T1: EsCas13d, nuclease-dead (Eubacterium siraeum, UniProt B0MS50, R295A;H300A;R849A;H854A)
T1 sequence: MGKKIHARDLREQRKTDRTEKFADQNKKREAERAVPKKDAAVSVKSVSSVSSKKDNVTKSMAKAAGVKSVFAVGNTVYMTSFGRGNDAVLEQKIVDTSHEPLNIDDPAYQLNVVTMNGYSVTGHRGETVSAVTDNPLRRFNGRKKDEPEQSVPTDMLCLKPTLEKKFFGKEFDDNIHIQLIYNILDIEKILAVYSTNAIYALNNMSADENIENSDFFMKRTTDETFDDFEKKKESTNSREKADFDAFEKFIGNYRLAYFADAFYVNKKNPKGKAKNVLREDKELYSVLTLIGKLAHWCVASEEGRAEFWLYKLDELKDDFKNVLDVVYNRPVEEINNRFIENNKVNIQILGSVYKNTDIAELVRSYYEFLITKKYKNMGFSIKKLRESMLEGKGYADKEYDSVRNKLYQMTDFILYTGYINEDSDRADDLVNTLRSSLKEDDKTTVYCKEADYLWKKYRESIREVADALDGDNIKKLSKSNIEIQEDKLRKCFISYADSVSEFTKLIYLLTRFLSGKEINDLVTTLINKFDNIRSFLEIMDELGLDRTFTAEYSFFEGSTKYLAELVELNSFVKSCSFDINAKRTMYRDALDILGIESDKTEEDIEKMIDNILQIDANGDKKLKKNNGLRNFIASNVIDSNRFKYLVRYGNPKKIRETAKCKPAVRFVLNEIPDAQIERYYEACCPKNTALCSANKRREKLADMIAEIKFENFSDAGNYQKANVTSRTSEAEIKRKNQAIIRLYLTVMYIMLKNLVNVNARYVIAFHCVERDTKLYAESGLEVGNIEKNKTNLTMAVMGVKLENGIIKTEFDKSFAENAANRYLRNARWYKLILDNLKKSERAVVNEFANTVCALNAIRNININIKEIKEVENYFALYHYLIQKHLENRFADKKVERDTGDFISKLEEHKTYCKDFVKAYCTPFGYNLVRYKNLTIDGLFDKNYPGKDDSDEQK

B1: target 1 insC 3' of 17,insU 3' of 2 (mixed)
RNA 1: CACCCGUGCAAAAAUGCAGGGGUCUAAAACUGAGCGGAUAACCUCUCUAUGG
RNA 2: GGGAAUGGAUCCACAUCUACGAAUUCGUACCAUAGCAGAGGUUAUCCGCUCUACCGAGAUCGGAAGAGCACACGU
B2: target 3 insC 3' of 9,insG 3' of 7 (mixed)
RNA 1: CACCCGUGCAAAAUUGCAGGGGUCUAAAACGACCUGAAUAUUUCAGAUCAAA
RNA 2: GGGAAUGGAUCCACAUCUACGAAUUCGUUUUUGAUCUGAAAUACUUGCAGGUCUGCAGAUCGGAAGAGCACACGU
B3: target 3 insA 3' of 8,insA 3' of 3 (mixed)
RNA 1: CACCCGUGCAAAAUUGCAGGGGUCUAAAACGACCUGAAUAUUUCAGAUCAAA
RNA 2: GGGAAUGGAUCCACAUCUACGAAUUCGUUUUUGAUCUGAAAUAUAUCAGGAUCUGCAGAUCGGAAGAGCACACGU
B4: target 3 insU 3' of 16,insC 3' of 3 (mixed)
RNA 1: CACCCGUGCAAAAUUGCAGGGGUCUAAAACGACCUGAAUAUUUCAGAUCAAA
RNA 2: GGGAAUGGAUCCACAUCUACGAAUUCGUUUUUGAUCUUGAAAUAUUCAGGCUCUGCAGAUCGGAAGAGCACACGU
B5: target 3 C1U,U2A (mixed)
RNA 1: CACCCGUGCAAAAUUGCAGGGGUCUAAAACGACCUGAAUAUUUCAGAUCAAA
RNA 2: GGGAAUGGAUCCACAUCUACGAAUUCGUUUUUGAUCUGAAAUAUUCAGGAUUGCAGAUCGGAAGAGCACACGU
B6: target 3 C16U (mixed)
RNA 1: CACCCGUGCAAAAUUGCAGGGGUCUAAAACGACCUGAAUAUUUCAGAUCAAA
RNA 2: GGGAAUGGAUCCACAUCUACGAAUUCGUUUUUGAUUUGAAAUAUUCAGGUCUGCAGAUCGGAAGAGCACACGU
B7: target 3 G3U,U8A (mixed)
RNA 1: CACCCGUGCAAAAUUGCAGGGGUCUAAAACGACCUGAAUAUUUCAGAUCAAA
RNA 2: GGGAAUGGAUCCACAUCUACGAAUUCGUUUUUGAUCUGAAAUAAUCAGUUCUGCAGAUCGGAAGAGCACACGU
B8: target 3 U2C,C6A (mixed)
RNA 1: CACCCGUGCAAAAUUGCAGGGGUCUAAAACGACCUGAAUAUUUCAGAUCAAA
RNA 2: GGGAAUGGAUCCACAUCUACGAAUUCGUUUUUGAUCUGAAAUAUUAAGGCCUGCAGAUCGGAAGAGCACACGU
B9: target 3 U7C,U8G (mixed)
RNA 1: CACCCGUGCAAAAUUGCAGGGGUCUAAAACGACCUGAAUAUUUCAGAUCAAA
RNA 2: GGGAAUGGAUCCACAUCUACGAAUUCGUUUUUGAUCUGAAAUAGCCAGGUCUGCAGAUCGGAAGAGCACACGU
B10: target 3 insU 3' of 22,insU 3' of 3 (mixed)
RNA 1: CACCCGUGCAAAAUUGCAGGGGUCUAAAACGACCUGAAUAUUUCAGAUCAAA
RNA 2: GGGAAUGGAUCCACAUCUACGAAUUCGUUUUUUGAUCUGAAAUAUUCAGGUUCUGCAGAUCGGAAGAGCACACGU
B11: target 3 C1A,C16U (mixed)
RNA 1: CACCCGUGCAAAAUUGCAGGGGUCUAAAACGACCUGAAUAUUUCAGAUCAAA
RNA 2: GGGAAUGGAUCCACAUCUACGAAUUCGUUUUUGAUUUGAAAUAUUCAGGUAUGCAGAUCGGAAGAGCACACGU
B12: target 3 insG 3' of 2,insA 3' of 1 (mixed)
RNA 1: CACCCGUGCAAAAUUGCAGGGGUCUAAAACGACCUGAAUAUUUCAGAUCAAA
RNA 2: GGGAAUGGAUCCACAUCUACGAAUUCGUUUUUGAUCUGAAAUAUUCAGGUGCAUGCAGAUCGGAAGAGCACACGU
B13: target 3 C1G,U2A (mixed)
RNA 1: CACCCGUGCAAAAUUGCAGGGGUCUAAAACGACCUGAAUAUUUCAGAUCAAA
RNA 2: GGGAAUGGAUCCACAUCUACGAAUUCGUUUUUGAUCUGAAAUAUUCAGGAGUGCAGAUCGGAAGAGCACACGU

For this series, the target named is T1, EsCas13d, nuclease-dead. Briefly: crRNA (strand 1, pre-loaded); Mg2+; 40 mM Tris-HCl pH 7.5, 150 mM NaCl, 6 mM MgCl2, 1 mM DTT, 0.1% Tween-20, 0.2 mg/ml BSA; 25 C; 10 min per concentration, then washed. Particulars: tags: His6-TwinStrep-SUMO cleaved; N-terminal SNAP kept (SNAP-Surface 488); label: 3' end held by stalled T7 RNA polymerase.
As for B1, the affinity, expressed as Kd, was 55 ± 18 nM.
For B2, the Kd (in general, the free concentration of one partner at which half of the binding sites on the other are occupied at equilibrium, for simple one-to-one binding) turned out to be 88 ± 21 nM.
Take B3: the Kd turned out to be 73 ± 18.5 nM.
Turning to B4, binding was characterised by a dissociation constant (Kd) of 64.5 ± 10 nM.
For B5 the value was 86 ± 24 nM.
Regarding B6, the Kd worked out at 82.5 ± 14 nM.
B7 gave a Kd of 89 ± 14.5 nM.
B8 yielded a Kd of 39 ± 7 nM.
Molecule B9 returned a Kd of 73.5 ± 12.5 nM.
B10 displayed a Kd of 27.2 ± 4.15 nM.
For B11, the Kd was approximately 91 nM.
Molecule B12 returned an equilibrium dissociation constant (Kd) of 54.2 ± 6.65 nM.
B13 registered a Kd of 4.6 ± 0.7 nM.
